Assay results: US20250152742A1, “COMPOSITIONS AND METHODS FOR NEUROLOGICAL DISEASES” (Trames Bio, Inc., priority 2022, published 2025)
Where a chain is given by its changes, count along the chain named. Names and notes keep the numbering of the source.

Test system: engineered chimeric receptor SEQ ID NO: 33 and its mutants (human α7-nAChR ligand binding domain / human GlyRα1 ion pore domain) in Lenti-X 293T cells
Test: YFP fluorescence quenching anion reporter plate reader assay (percent quench, EC50)
Format: cell-based
Conditions: for YFP fluorescence quenching using CNL001 (percent quench): receptor named in row; for YFP fluorescence quenching using Facinicline, 30 nM fac: ligand Facinicline 30 nM; for YFP fluorescence quenching using Facinicline, 300 nM fac: ligand Facinicline 300 nM; for YFP fluorescence quenching using Facinicline, 30 uM fac: ligand Facinicline 30 uM; for YFP fluorescence quenching using TC-6987, 1 uM tc6987: ligand TC-6987 1 uM; for YFP fluorescence quenching using TC-6987, 10 uM tc6987: ligand TC-6987 10 uM; for YFP fluorescence quenching using TC-6987, 500 uM tc6987: ligand TC-6987 500 uM; for YFP fluorescence quenching using Varenicline, 3 nM var: ligand Varenicline 3 nM; for YFP fluorescence quenching using Varenicline, 30 nM var: ligand Varenicline 30 nM; for YFP fluorescence quenching using Varenicline, 300 nM var: ligand Varenicline 300 nM; for YFP fluorescence quenching using Varenicline, 500 nM var: ligand Varenicline 500 nM; for YFP fluorescence quenching using Varenicline, 1 uM var: ligand Varenicline 1 uM
Outline: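 Percent quench compares mean YFP signal over the final 10 s with the 15 s baseline before ligand, added in iodide-containing extracellular solution (pH 7.2). Cells were LX293T carrying a YFP anion reporter, transiently transfected with the channel construct; plates were preincubated 30 min at 37 °C.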

[1] = 1 nM CNL001, first column so headed
[2] = 1 nM CNL001, second column so headed
[3] = 3 nM brd (TC-5619/Bradanicline)
[4] = 10 nM CNL001, first column so headed
[5] = 10 nM CNL001, second column so headed
[6] = 30 nM brd (TC-5619/Bradanicline)
[7] = 50 nM CNL001, first column so headed
[8] = 50 nM CNL001, second column so headed
[9] = 100 nM CNL001, first column so headed
[10] = 100 nM CNL001, second column so headed
[11] = 300 nM brd (TC-5619/Bradanicline)
[12] = 1 uM CNL001, first column so headed
[13] = 1 uM CNL001, second column so headed

B1: CODA337: engineered receptor: L131N in SEQ ID NO: 33 (protein)
chain: MRCSPGGVWLALAASLLHVSLQGEFQRKLYKELVKNYNPLERPVANDSQPLTVYFSLSLLQIMDVDEKNQVLTTNIWLQMSWTDHYLQWNVSEYPGVKTVRFPDGQIWKPDILLYNSADERFDATFHTNVNVNSSGHCQYLPPGIFKSSCPMDLKNFPMDVQTCKLKFGSWSYGGWSLDLQMQEADISGYIPNGEWDLVGIPGKRSERFYECCKEPYPDVTFTVTMRRRMGYYLIQMYIPSLLIVILSWISFWINMDAAPARVGLGITTVLTMTTQSSGSRASLPKVSYVKAIDIWMAVCLLFVFSALLEYAAVNFVSRQHKELLRFRRKRRHHKSPMLNLFQEDEAGEGRFNFSAYGMGPACLQAKDGISVKGANNSNTTNPPPAPSKSPEEMRKLFIQRAKKIDKISRIGFPMAFLIFNMFYWIIYKIVRREDVHNQ
modifications: synthetic sequence of chimeric LGIC
- YFP fluorescence quenching using CNL001 (percent quench) [1]: 76.917%
- YFP fluorescence quenching using CNL001 (percent quench) [2]: 79.554%
- YFP fluorescence quenching using TC-5619/Bradanicline (percent quench) [3]: 71.02%
- YFP fluorescence quenching using CNL001 (percent quench) [4]: 79.479%
- YFP fluorescence quenching using CNL001 (percent quench) [5]: 79.506%
- YFP fluorescence quenching using TC-6683 (percent quench) (30 nM TC-6683): −11.51%
- YFP fluorescence quenching using TC-5619/Bradanicline (percent quench) [6]: 78.43%
- YFP fluorescence quenching using CNL001 (percent quench) [7]: 81.465%
- YFP fluorescence quenching using CNL001 (percent quench) [8]: 81.297%
- YFP fluorescence quenching using ABT-126 (percent quench) (50 nM abt (ABT-126)): −11.64%
- YFP fluorescence quenching using CNL001 (percent quench) [9]: 82.619%
- YFP fluorescence quenching using CNL001 (percent quench) [10]: 81.722%
- YFP fluorescence quenching (percent quench) (100 nM CNL002): 76.37%
- YFP fluorescence quenching using ABT-126 (percent quench) (100 nM abt (ABT-126)): 34.79%
- YFP fluorescence quenching using AZD-0328 (percent quench) (100 nM azd0328): 82.1%
- YFP fluorescence quenching using TC-6683 (percent quench) (300 nM TC-6683): −13.17%
- YFP fluorescence quenching using ABT-126 (percent quench) (300 nM abt (ABT-126)): 60.08%
- YFP fluorescence quenching using AZD-0328 (percent quench) (300 nM azd0328): 82.52%
- YFP fluorescence quenching using TC-5619/Bradanicline (percent quench) [11]: 77.12%
- YFP fluorescence quenching using CNL001 (percent quench) [12]: 81.96%
- YFP fluorescence quenching using CNL001 (percent quench) [13]: 81.773%
- YFP fluorescence quenching (percent quench) (1 uM CNL002): 80.18%
- YFP fluorescence quenching using ABT-126 (percent quench) (1 uM abt (ABT-126)): 65.99%
- YFP fluorescence quenching using TC-6683 (percent quench) (3 uM TC-6683): −5.46%
- YFP fluorescence quenching (percent quench) (10 uM ach (acetylcholine)): 28.32%
- YFP fluorescence quenching (percent quench) (30 uM CNL002): 80.93%
- YFP fluorescence quenching using TC-6683 (percent quench) (30 uM TC-6683): 8.53%
- YFP fluorescence quenching using AZD-0328 (percent quench) (30 uM azd0328): 82.32%
- YFP fluorescence quenching using TC-6683 (percent quench) (100 uM TC-6683): 14.41%
- YFP fluorescence quenching (percent quench) (100 uM ach (acetylcholine)): 81.8%
- YFP fluorescence quenching (percent quench) (1 mM ach (acetylcholine)): 71.22%
- YFP fluorescence quenching (percent quench) (3 mM ach (acetylcholine)): 73.7%
- YFP fluorescence quenching using Facinicline, 30 nM fac: 82.25
- YFP fluorescence quenching using Facinicline, 300 nM fac: 83.59
- YFP fluorescence quenching using Facinicline, 30 uM fac: 82.82
- YFP fluorescence quenching using TC-6987, 1 uM tc6987: 79.06
- YFP fluorescence quenching using TC-6987, 10 uM tc6987: 82.36
- YFP fluorescence quenching using TC-6987, 500 uM tc6987: 80.19
- YFP fluorescence quenching using Varenicline, 3 nM var (first column): 3.093
- YFP fluorescence quenching using Varenicline, 3 nM var (second column): 12.327
- YFP fluorescence quenching using Varenicline, 30 nM var (first column): 77.097
- YFP fluorescence quenching using Varenicline, 30 nM var (second column): 77.653
- YFP fluorescence quenching using Varenicline, 300 nM var (first column): 79.446
- YFP fluorescence quenching using Varenicline, 300 nM var (second column): 79.998
- YFP fluorescence quenching using Varenicline, 500 nM var (first column): 80.691
- YFP fluorescence quenching using Varenicline, 500 nM var (second column): 80.309
- YFP fluorescence quenching using Varenicline, 1 uM var (first column): 80.258
- YFP fluorescence quenching using Varenicline, 1 uM var (second column): 79.509

B2: CODA945: engineered receptor: Q139E in SEQ ID NO: 33 (protein)
chain: B1 chain with N131L, Q139E
modifications: synthetic sequence of chimeric LGIC
- YFP fluorescence quenching using CNL001 (percent quench) [1]: 6.65%
- YFP fluorescence quenching using CNL001 (percent quench) [2]: 13.512%
- YFP fluorescence quenching using TC-5619/Bradanicline (percent quench) [3]: 14.15%
- YFP fluorescence quenching using CNL001 (percent quench) [4]: 78.678%
- YFP fluorescence quenching using CNL001 (percent quench) [5]: 82.723%
- YFP fluorescence quenching using TC-6683 (percent quench) (30 nM TC-6683): −26.47%
- YFP fluorescence quenching using TC-5619/Bradanicline (percent quench) [6]: 78.18%
- YFP fluorescence quenching using CNL001 (percent quench) [7]: 84.91%
- YFP fluorescence quenching using CNL001 (percent quench) [8]: 84.849%
- YFP fluorescence quenching using ABT-126 (percent quench) (50 nM abt (ABT-126)): −8.27%
- YFP fluorescence quenching using CNL001 (percent quench) [9]: 85.046%
- YFP fluorescence quenching using CNL001 (percent quench) [10]: 84.642%
- YFP fluorescence quenching (percent quench) (100 nM CNL002): 60.5%
- YFP fluorescence quenching using ABT-126 (percent quench) (100 nM abt (ABT-126)): 4.76%
- YFP fluorescence quenching using AZD-0328 (percent quench) (100 nM azd0328): −5.79%
- YFP fluorescence quenching using TC-6683 (percent quench) (300 nM TC-6683): −18.62%
- YFP fluorescence quenching using ABT-126 (percent quench) (300 nM abt (ABT-126)): 30.88%
- YFP fluorescence quenching using AZD-0328 (percent quench) (300 nM azd0328): 58.47%
- YFP fluorescence quenching using TC-5619/Bradanicline (percent quench) [11]: 76.8%
- YFP fluorescence quenching using CNL001 (percent quench) [12]: 85.493%
- YFP fluorescence quenching using CNL001 (percent quench) [13]: 86.071%
- YFP fluorescence quenching (percent quench) (1 uM CNL002): 75.41%
- YFP fluorescence quenching using ABT-126 (percent quench) (1 uM abt (ABT-126)): 60.66%
- YFP fluorescence quenching using TC-6683 (percent quench) (3 uM TC-6683): −13.39%
- YFP fluorescence quenching (percent quench) (10 uM ach (acetylcholine)): −1.25%
- YFP fluorescence quenching (percent quench) (30 uM CNL002): 77.46%
- YFP fluorescence quenching using TC-6683 (percent quench) (30 uM TC-6683): −16.6%
- YFP fluorescence quenching using AZD-0328 (percent quench) (30 uM azd0328): 66.57%
- YFP fluorescence quenching using TC-6683 (percent quench) (100 uM TC-6683): −12.89%
- YFP fluorescence quenching (percent quench) (100 uM ach (acetylcholine)): 71.21%
- YFP fluorescence quenching (percent quench) (1 mM ach (acetylcholine)): 71.79%
- YFP fluorescence quenching (percent quench) (3 mM ach (acetylcholine)): 76.04%
- YFP fluorescence quenching using Facinicline, 30 nM fac: −7.16
- YFP fluorescence quenching using Facinicline, 300 nM fac: 71.17
- YFP fluorescence quenching using Facinicline, 30 uM fac: 72.14
- YFP fluorescence quenching using TC-6987, 1 uM tc6987: −0.97
- YFP fluorescence quenching using TC-6987, 10 uM tc6987: 21.53
- YFP fluorescence quenching using TC-6987, 500 uM tc6987: 7.39
- YFP fluorescence quenching using Varenicline, 3 nM var (first column): 8.207
- YFP fluorescence quenching using Varenicline, 3 nM var (second column): 7.835
- YFP fluorescence quenching using Varenicline, 30 nM var (first column): 9.509
- YFP fluorescence quenching using Varenicline, 30 nM var (second column): 10.204
- YFP fluorescence quenching using Varenicline, 300 nM var (first column): 9.818
- YFP fluorescence quenching using Varenicline, 300 nM var (second column): 12.539
- YFP fluorescence quenching using Varenicline, 500 nM var (first column): 16.762
- YFP fluorescence quenching using Varenicline, 500 nM var (second column): 15.21
- YFP fluorescence quenching using Varenicline, 1 uM var (first column): 48.292
- YFP fluorescence quenching using Varenicline, 1 uM var (second column): 54.096
